Assay results taken from publication PMC12102759 (2025).

B1: SH3BP2 peptide 410-425 (SH3 domain-binding protein 2), 16-mer library wild type / TNKS ANK (TNKS 12 ANK repeats, residues 174-649) (parent complex)
chain 1: LPHLQRSPPDGQSFRS
chain 2: TGVPAVSGALRELLEACRNGDVSRVKRLVDAANVNAKDMAGRKSSPLHFAAGFGRKDVVEHLLQMGANVHARDDGGLIPLHNACSFGHAEVVSLLLCQGADPNARDNWNYTPLHEAAIKGKIDVCIVLLQHGADPNIRNTDGKSALDLADPSAKAVLTGEYKKDELLEAARSGNEEKLMALLTPLNVNCHASDGRKSTPLHLAAGYNRVRIVQLLLQHGADVHAKDKGGLVPLHNACSYGHYEVTELLLKHGACVNAMDLWQFTPLHEAASKNRVEVCSLLLSHGADPTLVNCHGKSAVDMAPTPELRERLTYEFKGHSLLQAAREADLAKVKKTLALEIINFKQPQSHETALHCAVASLHPKRKQVTELLLRKGANVNEKNKDFMTPLHVAAERAHNDVMEVLHKHGAKMNALDTLGQTALHRAALAGHLQTCRLLLSYGSDPSIISLQGFTAAQMGNEAVQQILSESTPIRTSD
B2: AXIN1 peptide 235-250 (Axin-1), 16-mer library wild type / PP2A B56 (PPP2R5A B56 domain, residues 1-486) (parent complex)
chain 1: SGYLPTLNEDEEWKAD
chain 2: not shown

Variants of: B1
Experiment: proteomic peptide phage display deep mutational scan (ProP-PD DMS): M13 P8 16-mer library selected against immobilised GST-tagged bait for four days (rounds), NGS of the eluted pools per day and pseudo-replica; bait immobilised on MaxiSorp plates (10 µg), library pre-cleared on GST, 2 h binding at 4 °C, five washes; one round per day, days 1-4; value from days 2 and 3

Going from chain 1 LNHLQRSPPDGQSFRS [chain 1 P2N] to chain 1 LPHLQRSPPDGQSYRS [chain 1 F14Y], the screen value rises from 0.000461 average fractional NGS count over selection days 2 and 3 (reads of this peptide / all reads for the bait, averaged over … to 0.00865 average fractional NGS count over selection days 2 and 3 (reads of this peptide / all reads for the bait, averaged over ….

Compared with chain 1 LPHLQRSPPDGQQFRS [chain 1 S13Q], chain 1 LPHLQRSPPDGQMFRS [chain 1 S13M] is lower in screen value: 0.00224 average fractional NGS count over selection days 2 and 3 (reads of this peptide / all reads for the bait, averaged over … for the first, 0.00197 average fractional NGS count over selection days 2 and 3 (reads of this peptide / all reads for the bait, averaged over … for the second.

Going from chain 1 LPLLQRSPPDGQSFRS [chain 1 H3L] to chain 1 LPHLDRSPPDGQSFRS [chain 1 Q5D], the screen value rises from 0.000556 average fractional NGS count over selection days 2 and 3 (reads of this peptide / all reads for the bait, averaged over … to 0.00109 average fractional NGS count over selection days 2 and 3 (reads of this peptide / all reads for the bait, averaged over ….

First: chain 1 LPHLQRSPPDGQSWRS [chain 1 F14W]
Second: chain 1 LPHLQRSPGDGQSFRS [chain 1 P9G]
The screen value of the first is higher: 0.00225 average fractional NGS count over selection days 2 and 3 (reads of this peptide / all reads for the bait, averaged over … for the first, 0.000695 average fractional NGS count over selection days 2 and 3 (reads of this peptide / all reads for the bait, averaged over … for the second.

Compared with chain 1 LPHLQRSPPDGQLFRS [chain 1 S13L], chain 1 LPHLQRSPPDGQDFRS [chain 1 S13D] is lower in screen value: 0.00144 average fractional NGS count over selection days 2 and 3 (reads of this peptide / all reads for the bait, averaged over … for the first, 0.00033 average fractional NGS count over selection days 2 and 3 (reads of this peptide / all reads for the bait, averaged over … for the second.

Compared with chain 1 LPHLQRKPPDGQSFRS [chain 1 S7K], chain 1 LPHLQRSPPDGKSFRS [chain 1 Q12K] is lower in screen value: 0.00104 average fractional NGS count over selection days 2 and 3 (reads of this peptide / all reads for the bait, averaged over … for the first, 0.000431 average fractional NGS count over selection days 2 and 3 (reads of this peptide / all reads for the bait, averaged over … for the second.

Going from chain 1 TPHLQRSPPDGQSFRS [chain 1 L1T] to chain 1 LPELQRSPPDGQSFRS [chain 1 H3E], the screen value falls from 0.0011 average fractional NGS count over selection days 2 and 3 (reads of this peptide / all reads for the bait, averaged over … to 0.000323 average fractional NGS count over selection days 2 and 3 (reads of this peptide / all reads for the bait, averaged over ….

In the case of chain 1 LPHLQRIPPDGQSFRS [chain 1 S7I], the screen value is reported as 0.000719 average fractional NGS count over selection days 2 and 3 (reads of this peptide / all reads for the bait, averaged over ….

Variants of: B2
Experiment: as above

First: chain 1 E11F
Second: chain 1 P5Y
The screen value of the first is higher: 0.00161 average fractional NGS count over selection days 2 and 3 (reads of this peptide / all reads for the bait, averaged over … for the first, 0.000222 average fractional NGS count over selection days 2 and 3 (reads of this peptide / all reads for the bait, averaged over … for the second.

Compared with chain 1 N8R, chain 1 G2H is higher in screen value: 0.000829 average fractional NGS count over selection days 2 and 3 (reads of this peptide / all reads for the bait, averaged over … for the first, 0.000834 average fractional NGS count over selection days 2 and 3 (reads of this peptide / all reads for the bait, averaged over … for the second.

Compared with chain 1 G2S, chain 1 T6V is higher in screen value: 0.000675 average fractional NGS count over selection days 2 and 3 (reads of this peptide / all reads for the bait, averaged over … for the first, 0.00125 average fractional NGS count over selection days 2 and 3 (reads of this peptide / all reads for the bait, averaged over … for the second.

Compared with chain 1 D16P, chain 1 L7I is higher in screen value: 0.000234 average fractional NGS count over selection days 2 and 3 (reads of this peptide / all reads for the bait, averaged over … for the first, 0.000349 average fractional NGS count over selection days 2 and 3 (reads of this peptide / all reads for the bait, averaged over … for the second.

First: chain 1 D10T
Second: chain 1 P5A
The screen value of the first is higher: 0.000731 average fractional NGS count over selection days 2 and 3 (reads of this peptide / all reads for the bait, averaged over … for the first, 0.00054 average fractional NGS count over selection days 2 and 3 (reads of this peptide / all reads for the bait, averaged over … for the second.

Going from chain 1 K14P to chain 1 K14D, the screen value rises from 0.000647 average fractional NGS count over selection days 2 and 3 (reads of this peptide / all reads for the bait, averaged over … to 0.000812 average fractional NGS count over selection days 2 and 3 (reads of this peptide / all reads for the bait, averaged over ….

Going from chain 1 W13Y to chain 1 N8E, the screen value rises from 0.000277 average fractional NGS count over selection days 2 and 3 (reads of this peptide / all reads for the bait, averaged over … to 0.000839 average fractional NGS count over selection days 2 and 3 (reads of this peptide / all reads for the bait, averaged over ….

Going from chain 1 D16E to chain 1 N8F, the screen value rises from 0.000288 average fractional NGS count over selection days 2 and 3 (reads of this peptide / all reads for the bait, averaged over … to 0.000687 average fractional NGS count over selection days 2 and 3 (reads of this peptide / all reads for the bait, averaged over ….

Compared with chain 1 E12L, chain 1 E12Q is higher in screen value: 0.00045 average fractional NGS count over selection days 2 and 3 (reads of this peptide / all reads for the bait, averaged over … for the first, 0.000677 average fractional NGS count over selection days 2 and 3 (reads of this peptide / all reads for the bait, averaged over … for the second.

Compared with chain 1 T6A, chain 1 D16M is higher in screen value: 0.000414 average fractional NGS count over selection days 2 and 3 (reads of this peptide / all reads for the bait, averaged over … for the first, 0.00821 average fractional NGS count over selection days 2 and 3 (reads of this peptide / all reads for the bait, averaged over … for the second.

Going from chain 1 E11V to chain 1 A15Y, the screen value rises from 0.000234 average fractional NGS count over selection days 2 and 3 (reads of this peptide / all reads for the bait, averaged over … to 0.000791 average fractional NGS count over selection days 2 and 3 (reads of this peptide / all reads for the bait, averaged over ….

Compared with chain 1 E11Y, chain 1 A15P is higher in screen value: 0.000271 average fractional NGS count over selection days 2 and 3 (reads of this peptide / all reads for the bait, averaged over … for the first, 0.00074 average fractional NGS count over selection days 2 and 3 (reads of this peptide / all reads for the bait, averaged over … for the second.

Going from chain 1 G2W to chain 1 A15T, the screen value falls from 0.00074 average fractional NGS count over selection days 2 and 3 (reads of this peptide / all reads for the bait, averaged over … to 0.000294 average fractional NGS count over selection days 2 and 3 (reads of this peptide / all reads for the bait, averaged over ….

First: chain 1 N8A
Second: chain 1 Y3V
The screen value of the first is lower: 0.000156 average fractional NGS count over selection days 2 and 3 (reads of this peptide / all reads for the bait, averaged over … for the first, 0.00041 average fractional NGS count over selection days 2 and 3 (reads of this peptide / all reads for the bait, averaged over … for the second.

Compared with chain 1 E11K, chain 1 N8S is lower in screen value: 0.000202 average fractional NGS count over selection days 2 and 3 (reads of this peptide / all reads for the bait, averaged over … for the first, 0.000146 average fractional NGS count over selection days 2 and 3 (reads of this peptide / all reads for the bait, averaged over … for the second.

First: chain 1 N8K
Second: chain 1 N8P
The screen value of the first is lower: 0.000298 average fractional NGS count over selection days 2 and 3 (reads of this peptide / all reads for the bait, averaged over … for the first, 0.000473 average fractional NGS count over selection days 2 and 3 (reads of this peptide / all reads for the bait, averaged over … for the second.

First: chain 1 E12A
Second: chain 1 A15G
The screen value of the first is lower: 0.000112 average fractional NGS count over selection days 2 and 3 (reads of this peptide / all reads for the bait, averaged over … for the first, 0.000885 average fractional NGS count over selection days 2 and 3 (reads of this peptide / all reads for the bait, averaged over … for the second.

Compared with chain 1 W13M, chain 1 Y3S is higher in screen value: 0.000138 average fractional NGS count over selection days 2 and 3 (reads of this peptide / all reads for the bait, averaged over … for the first, 0.000173 average fractional NGS count over selection days 2 and 3 (reads of this peptide / all reads for the bait, averaged over … for the second.

First: chain 1 D10L
Second: chain 1 K14G
The screen value of the first is higher: 0.000595 average fractional NGS count over selection days 2 and 3 (reads of this peptide / all reads for the bait, averaged over … for the first, 0.00056 average fractional NGS count over selection days 2 and 3 (reads of this peptide / all reads for the bait, averaged over … for the second.

Going from chain 1 K14N to chain 1 E11Q, the screen value rises from 0.000231 average fractional NGS count over selection days 2 and 3 (reads of this peptide / all reads for the bait, averaged over … to 0.00516 average fractional NGS count over selection days 2 and 3 (reads of this peptide / all reads for the bait, averaged over ….

First: chain 1 E12P
Second: chain 1 K14W
The screen value of the first is lower: 0.000257 average fractional NGS count over selection days 2 and 3 (reads of this peptide / all reads for the bait, averaged over … for the first, 0.00219 average fractional NGS count over selection days 2 and 3 (reads of this peptide / all reads for the bait, averaged over … for the second.

Compared with chain 1 G2D, chain 1 D10V is higher in screen value: 0.000338 average fractional NGS count over selection days 2 and 3 (reads of this peptide / all reads for the bait, averaged over … for the first, 0.00335 average fractional NGS count over selection days 2 and 3 (reads of this peptide / all reads for the bait, averaged over … for the second.

Compared with chain 1 G2L, chain 1 W13L is lower in screen value: 0.000458 average fractional NGS count over selection days 2 and 3 (reads of this peptide / all reads for the bait, averaged over … for the first, 0.000454 average fractional NGS count over selection days 2 and 3 (reads of this peptide / all reads for the bait, averaged over … for the second.

First: chain 1 E11S
Second: chain 1 D16N
The screen value of the first is higher: 0.000584 average fractional NGS count over selection days 2 and 3 (reads of this peptide / all reads for the bait, averaged over … for the first, 0.000396 average fractional NGS count over selection days 2 and 3 (reads of this peptide / all reads for the bait, averaged over … for the second.

Compared with chain 1 D10M, chain 1 D16V is lower in screen value: 0.00104 average fractional NGS count over selection days 2 and 3 (reads of this peptide / all reads for the bait, averaged over … for the first, 0.00077 average fractional NGS count over selection days 2 and 3 (reads of this peptide / all reads for the bait, averaged over … for the second.

First: chain 1 D16G
Second: chain 1 E12F
The screen value of the first is higher: 0.000202 average fractional NGS count over selection days 2 and 3 (reads of this peptide / all reads for the bait, averaged over … for the first, 0.000153 average fractional NGS count over selection days 2 and 3 (reads of this peptide / all reads for the bait, averaged over … for the second.

First: chain 1 D16H
Second: chain 1 N8T
The screen value of the first is higher: 0.0014 average fractional NGS count over selection days 2 and 3 (reads of this peptide / all reads for the bait, averaged over … for the first, 0.000511 average fractional NGS count over selection days 2 and 3 (reads of this peptide / all reads for the bait, averaged over … for the second.

For chain 1 K14Q, the screen value was 0.00109 average fractional NGS count over selection days 2 and 3 (reads of this peptide / all reads for the bait, averaged over ….
